Data reported in article PMC11298625, “MdVQ17 negatively regulates apple resistance to Glomerella leaf spot by promoting MdWRKY17-mediated salicylic acid degradation and pectin lyase activity”.

B1: MdDMR6 probe (dsDNA)
DNA 1: ATATTGTTTTCTGCATTTTTGACTTAATTTTTATAAATTAA
DNA 2: TTAATTTATAAAAATTAAGTCAAAAATGCAGAAAACAATAT
B2: MdPL-like-P2 probe (dsDNA)
DNA 1: AAGTCAACTAAAAAAGTCAACGTCTGACCGTTGACTGGTCAAAG
DNA 2: CTTTGACCAGTCAACGGTCAGACGTTGACTTTTTTAGTTGACTT
B3: MdPL-like-P1 probe (dsDNA)
DNA 1: AGGAGTACCTTTGGTCAAACTATATTCAAA
DNA 2: TTTGAATATAGTTTGACCAAAGGTACTCCT
B4: MdPL-like-P3 probe (dsDNA)
DNA 1: AGTTGACCATTGACCGTTGACTGAGTCAACAGTCAAGGTCAACT
DNA 2: AGTTGACCTTGACTGTTGACTCAGTCAACGGTCAATGGTCAACT

These binders were tested against MdWRKY17 (Malus x domestica, UniProt A0A9E6GT21 1-512) (assay: EMSA; Chemiluminescent EMSA Kit (Beyotime); buffer, salt, pH and temperature not stated). Conditions: protein: recombinant; tags: His (pET32a); label: biotin; blunt.
Chain of MdWRKY17 (A0A9E6GT21 entry or part of it): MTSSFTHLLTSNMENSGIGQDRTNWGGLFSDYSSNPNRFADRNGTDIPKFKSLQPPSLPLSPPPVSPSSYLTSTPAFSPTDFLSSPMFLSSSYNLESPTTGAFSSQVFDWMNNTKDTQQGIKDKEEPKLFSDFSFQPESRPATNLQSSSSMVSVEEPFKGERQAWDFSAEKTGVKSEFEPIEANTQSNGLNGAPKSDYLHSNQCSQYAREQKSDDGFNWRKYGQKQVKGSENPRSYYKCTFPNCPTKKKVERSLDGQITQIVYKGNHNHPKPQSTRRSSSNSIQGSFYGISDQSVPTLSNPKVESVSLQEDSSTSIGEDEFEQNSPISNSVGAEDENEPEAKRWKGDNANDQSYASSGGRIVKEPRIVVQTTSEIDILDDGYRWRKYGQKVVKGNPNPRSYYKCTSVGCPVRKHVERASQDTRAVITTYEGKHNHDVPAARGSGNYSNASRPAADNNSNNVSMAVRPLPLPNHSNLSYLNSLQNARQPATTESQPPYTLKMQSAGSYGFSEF

Binding result, binds:
B1, B2, B3, B4
